Test results taken from the nanobody polyreactivity screen of Harvey et al. (2022).

Experiment: yeast display, Sf9 membrane polyspecificity reagent, FACS + sequencing; frameworks hold sequencing errors
Procedure, shortened: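 In a synthetic yeast display library (Saccharomyces cerevisiae BJ5465), nanobody expression was induced with galactose for 36–48 hours. FACS gates were set low and high (top ~1%) using anti-HA fluorescence for expression and streptavidin fluorescence for binding of the Sf9 membrane reagent. Each polyreactivity label is drawn from the gate of origin.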

| Sequence | polyreactivity (PSR sort gate) |
| --- | --- |
| QVQLEESGGGLVQAGGSHRLSCAASGIIFRWYTMGWYRQAPGKERELVAAISTSTGSTYYADSVKGRFTISRDNAKNTVYLQMNSLKPEDTGVYYCAAEYAYWNYESYYWGQGTQVNVSS | high polyreactivity |
| QVQLEESGGGLVQAGGSHRLSCAASGSIFGPNAMGWSRQAPGKERELVAAISWTGGRTYYADSVKGRFTISRDNAYNTVYLQMNSLKPEDTAVYDCAVKGHPCGQGTQVTVSS | low polyreactivity |
| QVQLEESGGGLVQAGGSHRLSCPASGRTFYKNAMGWSRQAPRKERELVAAITSGGSTNYADSVKGRFSISRDNAKNSVYLQMNSLKSEDTAVYYCAAQQFPYYRSRFSYINKYDYWGQGTQVTVSS | high polyreactivity |
| QVQLEESGGGLVQAGGSLLLICADSGSILGGNAMGWYRHAPGKERQMVDAITFSGGGTYYADSVKGRFTLSRDNAKNTVYLQMNSLKPEDTAVYYCAADKDGYTYEFDYWGQGTQVTVSS | low polyreactivity |
| QVQLEESGGGLVQAGGSLRISCAASGFTFSHNAMGWYRQAPGKERELVAAISKGGSSTYYADSVKGRFTISRDNAKNTVYLQMNSLKPEDTAVYYCARPSPHKGYDYWGQGTQVTVSS | high polyreactivity |
| QVQLEESGGGLVQAGGSLRISCAASGITFDDYDMGWYRQAPGKERELVAAITWSGGSTYYADSVKGRFTSSRDNAKNTVYLQMNSLKPEVTAVSYCNAGSTWAYSYPVGKSDLDYWGQGTQVTVSS | low polyreactivity |
| QVQLEESGGGLVQAGGSLRISCAASGSIFPSYAMGWYRQAPGKERELVAAISSRGGSTYYADSVKGRFTISRDNAKNSVYLQMNSLKPEDTAVYYCNAVAGGVYVDKGYDYWGQGTQVTVSS | high polyreactivity |
| QVQLEESGGGLVQAGGSLRISCAASGSTYYNYAMGWYRQAPGKERELVAAISRSGITYYADSVKGRFTISRDNAKNTVYLQMNSLKPEDTAVYYCAAGRRFDQSMYYWGQGTQVTVSS | high polyreactivity |
| QVQLEESGGGLVQAGGSLRLICAASGGIFRYYAMGWSRQAPGKERELVAAITQSGARTYYADSVKGRFTISRDNAKNTVYLQMNSMKPEDTAVYYCAADRTGSRYNSWGQGTQVTVSS | high polyreactivity |
| QVQLEESGGGLVQAGGSLRLSCAASGFIFPHYAMGWYLQAPGKERELVAAISKSGDSTYYADSVKGRFTISRDNAKNTVYLQMNSLKPEDTAVYYCARRGRSLRWKYDYWGQGTQVTVSS | low polyreactivity |
| QVQLEESGGGLVQAGGSLRLSCAASGFIFSSNAMGWYRQAPGKESQLVARITRSDGSTYYADSVKGRFTISRDSAKNTVYLQMNSLKPEDTAFDYCAKGRDATHYEYYLYSMDYWGQGTQVTVSS | low polyreactivity |
| QVQLEESGGGLVQAGGSLRLSCAASGFISIPYAMGWYRQAPGKERELVASITRSGGNTYYADSVKGRFTISRDNAKNTVYLQMNSLKPEDTAVYYCNVVVYRWSPVSKLDYWGQGTQVTVSS | high polyreactivity |
| QVQLEESGGGLVQAGGSLRLSCAASGFITSHYAMGWYIQAPGKERELVATISSGGSTYADSVKGRFTISRDNAKNTVYLQMNSLKPEDTAVYYCNVRLQGTYRAGVRGDYWGQVTQVTVSS | high polyreactivity |
| QVQLEESGGGLVQAGGSLRLSCAASGFNFDVYAMGWYRQAPGKERELVAAISRSGGSTYYADSVKGRFTISRDNAKNTFYLQMNSLKPEDTAVYYCATDLLNNVDYDYWGQGTQVTVSS | low polyreactivity |
| QVQLEESGGGLVQAGGSLRLSCAASGFNFFRNTMGGYRQAPGKERELVAGIRYSGGSTYYADSVKGRFTISRDNAKNTVYLQMNSLKPEDTAVYYCAARSHRRLMYYWGQGTQVTVSS | high polyreactivity |
| QVQLEESGGGLVQAGGSLRLSCAASGFNFRKNVMGWYRPAPGKERELVAAISAPGGSTYYAHSVKGRFTISRDNGKNTGYLQMYCLKPEDPAVYFCKTDGYLYQYDYWGQGTQVTVSS | high polyreactivity |
| QVQLEESGGGLVQAGGSLRLSCAASGFNFWVYAMGWYRQAPGKERELVAAISYNGGRTYYADSVKGRFTISRDNAKNTVYLQMNSLKPEDTAVYYCASLPAPTGRGDYWGQGTQVTVSS | high polyreactivity |
| QVQLEESGGGLVQAGGSLRLSCAASGFTFNYYTMGWYTQAPGKERELVATISTRGGSTYYADSVKGRFTISRDNAKNSVYLQMNSLKPEDTAVYYCNVGQKSVSSAYDYWGQGTEVTVSS | high polyreactivity |
| QVQLEESGGGLVQAGGSLRLSCAASGFTFRRYAMGWYRQAPGKERELVAVITTAGYTNYADSVKGRFTISRDNAKNSVYLQMNSLKPEDTAVYYCATDNGTRKRRYDYWGQGTQVTVSS | low polyreactivity |
| QVQLEESGGGLVQAGGSLRLSCAASGFTFTRNAMGWYRQAPGKERELVAAISRGGSTNYADSVQGRFRISSDNAKNTVYLQMNSLKPEDTAVYYCAKVRTRATPGVDYYYWGQGTQVTVSS | high polyreactivity |
| QVQLEESGGGLVQAGGSLRLSCAASGFTFTTNAMGWYRQAPGKERELVAAISFSGGTTYYADSVKGRFTISRDNAKNTVYLQMNSLKPEDTAVYYCAAQPGQAWWSTDHDDYWGQGTQVSVSS | low polyreactivity |
| QVQLEESGGGLVQAGGSLRLSCAASGFTFVDYLMGWYRQAPGKERELVAAITRSGGSTYYADSVKGRFTISRDQAKNTVYLEMNSLKPEDTAVYYCAAEIRDYAKSYSFYWGQGTQVTVSS | high polyreactivity |

| Sequence | polyreactivity (PSR sort gate) |
| --- | --- |
| QVQLEESGGGLVQAGGSLRLSCAASGFTFYLYTMGWYRQAPGKERELVAAISRSGDRTYYADSVKGRFSISRDNAKNTVYLQMNSLKPEDTAVYYCAARSYRPTRGDYWGQGTQVTVSS | high polyreactivity |
| QVQLEESGGGLVQAGGSLRLSCAASGFTFYSYAKGCSRQAPGKERELVAAISWSGSRTYYADSVKGRFTISRDNAKNTVYLQMNSLKPEDTAVYVCNKYLPRHRYDFDYWGQGTQVTVSS | high polyreactivity |
| QVQLEESGGGLVQAGGSLRLSCAASGFTIGVYAMGWYRQAPGKERELVAAISARGGSTYYADSVKGRFTISRDNAKKTVYLQMNSLKPEDTAVFYCAVVLKYVSADQMDYWGQGTQVTVSS | high polyreactivity |
| QVQLEESGGGLVQAGGSLRLSCAASGGIFDYNSMGWYRQAPGKERELVAAISSGASTTYADSVKGRFTISRDNAKNTVYLQMNSLKPEATAVYYCAAYWKSRYLSGLEYYSWGQGTQVTVSS | low polyreactivity |
| QVQLEESGGGLVQAGGSLRLSCAASGGIFYGYAMGWNRQAPGIERELVAAISDSGGSTYYADSVKGRFTISRDNAKNTVFLQLNSLNPEDTAVYYCATDARVGGYVSEGDFWGQGTQVTVSW | low polyreactivity |
| QVQLEESGGGLVQAGGSLRLSCAASGGTFDHYTMGWYRQAPGKERELVAAISRRSGRTYYADSVKGRFTISRDKAKNTVYLQMNSLKPEDTAVYYCNADGYTRAFDYWGQGTQVTVSS | high polyreactivity |
| QVQLEESGGGLVQAGGSLRLSCAASGIIFATYAMGWYTQAPGKDRELVAAISSGGRTYYADSVKGRFTISRDNAKNTVYFQMNSLKPEDTAVYYCAAKSGGRSSLYNYWGQGTQVTVSS | high polyreactivity |
| QVQLEESGGGLVQAGGSLRLSCAASGIIFSPYAMGWYIQAPWKERELVAAINFSTGRTYYADSVKGRFTISRDNAKNTVYLQMNSLKPEDTAVYYCAAGKYPYVFRGGYDYWGQGTQVTVSS | low polyreactivity |
| QVQLEESGGGLVQAGGSLRLSCAASGIIFYRSVMGWYRQAPGKERELVAAITGGGSTYYADSVKGRFTISRDNAKNTVYLQMNSLKPEDTAVYYCNADIRAYTVLTGGYIYDYWGQVTQVTVSS | high polyreactivity |
| QVQLEESGGGLVQAGGSLRLSCAASGITFAHYAMGWSRQAPGKDRELVAAISQSGGSTYYADSVKGRFTISRDNAKNTVYLQMNSLKPEDTAVYYCNKYRYPQDDYWGQGTQVTVSS | high polyreactivity |
| QVQLEESGGGLVQAGGSLRLSCAASGITFNQYVMGWYRQAPGKEMELVAAISRSGATTYYADSVKGRFTISRDNAKNTVYLQMNSLKPEDTAVYYCAVRGSVSYTRYGYWGQGTQVTVSS | high polyreactivity |
| QVQLEESGGGLVQAGGSLRLSCAASGITFTLNAMGWYRQAPGKERELVATINRGTGTNYADSVKGRFTISRDNAKYTVYLQMNSLKPEVTAVYYCAADHRGEYDYWGQGTQVTVSS | low polyreactivity |
| QVQLEESGGGLVQAGGSLRLSCAASGITFVGNAMGWYRQAPGKERELVAGIRGNGGSTYYADSVKGRFTISRDNAKNTVYLQMHSMNPEDTAVYYCAAAAYYADFDYWGQGTQVTVSS | low polyreactivity |
| QVQLEESGGGLVQAGGSLRLSCAASGITYYYAMGWYRQAPGKERELVAVITPGVSTNYADSVKGRFTISRDNAKNSVYLHMNSLKPEDTAVYYCATDVQVPCIGRSVYAYEYWGQGTQVTVSS | low polyreactivity |
| QVQLEESGGGLVQAGGSLRLSCAASGLICVLYTMGSYRQAPGKERELVATINWGGGNTYYADSVKGRFTISRDNAKNTVYLQMNSLKPEDTAVYYCAAAYTWYGYSQAYYYWGQGTQVTVSS | low polyreactivity |
| QVQLEESGGGLVQAGGSLRLSCAASGLTLGRYAMGWYRQAPGKERELVAVITGGGSTNYADSVKGRFTISRDNAKNTVYLQMNSLKPEDTAVYSCAVRGGIFQTLSTWYRYYYWGQGTQVTVSS | high polyreactivity |
| QVQLEESGGGLVQAGGSLRLSCAASGRIFAGYAMGWYRQEPGKERELVAAINGSGADTYYADSVKGRFTISRDNAKNTVYLQMNSLKPEDTAVYYCAASPGSQYTGYDYWGQGTQVTVSS | low polyreactivity |
| QVQLEESGGGLVQAGGSLRLSCAASGRIFGVYAMGWYRQAPGKERELVAAISWSASSTYYADSVKGRFTISRDNAKNTVYLQMNSLKPEDTAVYYCNAEVLGFYELDYWGQGTQVTVSS | high polyreactivity |
| QVQLEESGGGLVQAGGSLRLSCAASGRIFKSYTMGGYRQAPGKERELVAAITKSAASTYYADSVKGRFTISRDNAKNTVYLQMNSLKPVDTAVYYCAASRIGGGKVKFGYWGQGTQVTVSS | high polyreactivity |
| QVQLEESGGGLVQAGGSLRLSCAASGRIFMTYAMGWYRQAPGKERELVAAITRRGGTTYYADSEKARFTISRDNAKNTVYLQMNCLKPEDTAVYYCAPAKPRVISQNIIYDYWGQGTQVTVSS | high polyreactivity |
| QVQLEESGGGLVQAGGSLRLSCAASGRIFSDYAKGGYRQAPGKERELVATITSGDSTNYADSVKGRFTISRDNAKNTVYLQMNRLKPEDTAVYYCNADRFADYDYWGQGTQVTVSS | low polyreactivity |
